Measurements as given in patent US20230201322A1.

How the values were obtained:
Conditions in all cases: remark: other sources report otherwise
[1] = target: T1, HLA-A*0201 molecule expressed on the human tumoral cell T2 (human); test: T2 cell HLA-A2 FACS (BB7.2-PE), peptide 100 µM
[2] = target: T1, HLA-A*0201 molecule expressed on the …; test: T2 cell HLA-A2 FACS (BB7.2-PE), peptide 10 µM
[3] = target: T1, HLA-A*0201 molecule expressed on the …; test: T2 cell HLA-A2 FACS (BB7.2-PE), peptide 0.1 µM
[4] = target: T1, HLA-A*0201 molecule expressed on the …; test: T2 cell HLA-A2 FACS (BB7.2-PE), peptide 1 µM
[5] = target: T1, HLA-A*0201 molecule expressed on the …; test: T2 cell HLA-A2 FACS (BB7.2-PE); ratio of 20% concentrations against HIV pol 589-597
[6] = target: T1, HLA-A*0201 molecule expressed on the …; test: T2 cell HLA-A2 FACS (BB7.2-PE), peptide titration

HLA-A2 labelling as % of reference peptide HIV pol 589-597 at 100 µM [1] | HLA-A2 labelling as % of reference peptide HIV pol 589-597 at 100 µM [2] | HLA-A2 labelling as % of reference peptide HIV pol 589-597 at 100 µM [3] | HLA-A2 labelling as % of reference peptide HIV pol 589-597 at 100 µM [4] | Relative affinity [5] | Conc. inducing 20% of HLA-A2 expression [6] | Binder
336% | 57% | -14.6% | 1.51% | 0.19 | 6.9 µM | VLLGVVFGV [antigenic peptide ERBB2-3B2 (…)]
196% | 11.9% | -12.6% | -24% | 0.45 | 16.3 µM | VVLGVVFGI [reference human peptide derived from ERBB2, ERBB2-3H (…)]
